Assay results as given in patent US20110129459A1 (Chugai, published 2011).
“And” between values parts separate entries of the source, which are not always exact repeats. Equal entries are not always repeated. Where two headings read alike, the source gives them in different places. Blank lines part the entries; values can stand above or below the binder they belong to.

Experiments:
[1] = biological target: T1, soluble human FcRn (FcRn extracellular domain / beta2-microglobulin complex) (human, UniProt P55899 24-290; P61769 21-119); assay: SPR, Biacore 3000; antibody captured on chip, soluble human FcRn as analyte, steady state affinity, pH 6.0
T1 construct: The expression constructs contain the signal regions (FcRn Met1-Leu290; beta2-microglobulin Met1-Met119); also called hFcRn
Procedure: The binding to human FcRn was assessed using Biacore 3000. An antibody was bound to Protein L or rabbit anti-human IgG Kappa chain antibody immobilized onto a sensor chip, human FcRn was added as an analyte for interaction with the antibody, and the affinity (KD) was calculated from the amount of bound human FcRn. Specifically, Protein L was immobilized onto sensor chip CM5 (BIACORE) by the amine coupling method using 50 mM Na-phosphate buffer (pH 6.0) containing 150 mM NaCl as the running buffer. Then, an antibody was diluted with the running buffer containing 0.02% Tween20, and injected and allowed to bind to the chip. Human FcRn was then injected to assess the binding activity of the antibody to the human FcRn.
The affinity was calculated using BIAevaluation software. The obtained sensorgram was used to calculate the amount of hFcRn bound to the antibody immediately before the end of human FcRn injection. This was fitted by the steady state affinity method to calculate the affinity of human FcRn for the antibody.

[2] = biological target: T2, rhNR10 (recombinant human NR10) (human, UniProt Q8NI17 20-519, limits assumed); assay: SPR, Biacore T100; antibody captured on Protein A, rhNR10 as analyte
T2 construct: also called IL-31 receptor; IL31RA
T2 sequence: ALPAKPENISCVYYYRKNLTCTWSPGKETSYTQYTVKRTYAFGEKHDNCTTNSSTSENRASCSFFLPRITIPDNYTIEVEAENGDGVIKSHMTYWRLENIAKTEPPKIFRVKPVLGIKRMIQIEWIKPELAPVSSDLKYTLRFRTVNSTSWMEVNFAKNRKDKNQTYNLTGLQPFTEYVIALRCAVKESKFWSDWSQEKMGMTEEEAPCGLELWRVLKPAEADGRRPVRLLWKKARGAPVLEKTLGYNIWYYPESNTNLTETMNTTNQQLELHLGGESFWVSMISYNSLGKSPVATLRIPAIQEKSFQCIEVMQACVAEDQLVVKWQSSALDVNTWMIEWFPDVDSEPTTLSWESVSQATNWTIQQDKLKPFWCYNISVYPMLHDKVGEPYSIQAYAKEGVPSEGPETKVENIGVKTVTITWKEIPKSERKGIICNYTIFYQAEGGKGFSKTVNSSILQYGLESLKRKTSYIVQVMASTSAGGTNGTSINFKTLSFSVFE
Procedure: (§1) Kinetic analysis of the antigen-antibody reaction was carried out using Biacore T100 (GE Healthcare Biosciences). The antigen-antibody interaction was measured by immobilizing rec-Protein A (hereinafter Protein A) (ZYMED) onto a sensor chip, capturing an antibody on the immobilized Protein A, and then reacting the antigen as an analyte. Various concentrations of rhNR10 were used as the antigen. The kinetic parameters, association rate constant kₐ (1/Ms) and dissociation rate constant kd (1/s), were calculated from the sensorgrams obtained by the measurement. Then, KD (M) was determined based on the rate constants. Each parameter was determined using Biacore T100 Evaluation Software version 1.1 (GE Healthcare Biosciences).
(§2) The running buffer used was HBS-EP+. Each antibody was prepared at 0.25 μg/ml, or prepared so that about 100 RU would bind to Protein A. rhNR10 used as an analyte was prepared at 0, 38.5, 77.0, and 154 nM, or at 0, 19.25, and 77.01 nM using HBS-EP+. In the measurement, first, the antibody solution was captured on Protein A, and an analyte solution was reacted at a flow rate of 20 μL/min for three minutes. Then, the solution was switched to HBS-EP+, and the dissociation phase was measured for five minutes. After measurement of the dissociation phase, the sensor chip was regenerated by washing with 10 mM glycine-HCl (pH 1.5). The obtained sensorgrams were kinetically analyzed using the Biacore-specific data analysis software, Biacore T100 Evaluation Software Version 1.1.

[3] = biological target: T3, cytoplasmic domain-lacking human NR10 on CHO cells (hNR10-expressing CHO cells) (human, UniProt Q8NI17 20-553); assay: FMAT competition on hNR10-expressing CHO cells: antibody titrated against FMAT Blue-labeled hIL-31; FL1 = cell-bound labeled hIL-31
T3 construct: also called NR10-expressing cells
T3 sequence: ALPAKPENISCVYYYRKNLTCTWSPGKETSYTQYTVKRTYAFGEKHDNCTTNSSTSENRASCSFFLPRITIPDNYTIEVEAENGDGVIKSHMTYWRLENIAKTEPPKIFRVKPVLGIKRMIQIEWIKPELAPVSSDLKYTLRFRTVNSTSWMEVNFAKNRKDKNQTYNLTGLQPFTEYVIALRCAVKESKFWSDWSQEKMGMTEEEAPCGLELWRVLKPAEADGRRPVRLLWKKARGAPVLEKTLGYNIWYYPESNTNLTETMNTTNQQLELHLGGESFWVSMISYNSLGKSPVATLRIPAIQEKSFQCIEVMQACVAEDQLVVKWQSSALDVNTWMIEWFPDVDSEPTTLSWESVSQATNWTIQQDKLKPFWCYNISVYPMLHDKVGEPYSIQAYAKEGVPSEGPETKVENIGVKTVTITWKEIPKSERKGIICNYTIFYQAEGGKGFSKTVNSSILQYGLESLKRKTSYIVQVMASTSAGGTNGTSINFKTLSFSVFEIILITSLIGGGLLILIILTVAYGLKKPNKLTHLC
Procedure: Human IL-31 (R&D Systems) was labeled with FMAT Blue Monofunctional Reactive Dye (Applied Biosystems). 100 μl of hIL-31 prepared at 0.5 mg/ml using 50 mM sodium phosphate buffer (pH 8.0) was mixed with 5.25 μl of 25 nmoles FMAT Blue dissolved in DMSO (Junsei). After vortexing, the mixture was allowed to stand at room temperature for 15 minutes. The FMAT Blue-conjugating reaction with hIL-31 was terminated by adding 5 μl of 1 M Tris-HCl (pH 7.4) and 1.1 μl of 10% Tween20, and then FMAT Blue-labeled hIL-31 and unreacted FMAT Blue were separated by gel filtration using Superdex 75 (GE Healthcare, 17-0771-01) column with 0.1% Tween20/PBS developing solution.
(§3) Antibodies were assessed for the activity of inhibiting the IL-31/NR10 binding by using hNR10-expressing CHO cells as described below. The chimeric NS22 antibody and NS22_H0L0 (H chain, H0-SKSC/SEQ ID NO: 54; L chain, L0/SEQ ID NO: 56) were diluted at an appropriate concentration using Assay buffer (10 mM HEPES, 140 mM NaCl, 2.5 mM CaCl₂, 3 mM MgCl₂, 2% FBS, 0.01% NaN₃, pH7.4), and further eight serial dilutions were prepared at a common dilution ration of 2. The dilutions were added at 40 μl/well to plates (96-Well FMAT Plates, Applied Biosystems). Then, FMAT Blue-labeled hIL-31 was diluted 400 times with Assay buffer, and added at 20 μl/well. Finally, a cell suspension adjusted to 2.5×10⁵ cells/ml using Assay buffer was added at 40 μl/well (final 1×10⁴ cells/well). Two hours after addition of cells, the fluorescence (FL1) was measured using the 8200 Cellular Detection System (Applied Biosystems).

[4] = biological target: T2, rhNR10 (recombinant human NR10); assay: SPR, Biacore T100; antibody captured on Protein A, rhNR10 as analyte; remark: listed apart in the source
Procedure: as §1, §2

[5] = biological target: T2, rhNR10 (recombinant human NR10); assay: as above; remark: listed apart in the source
Procedure: as §1, §2

[6] = biological target: T3, cytoplasmic domain-lacking human NR10 …; assay: FMAT competition on hNR10-expressing CHO cells: antibody titrated against FMAT Blue-labeled hIL-31; FL1 = cell-bound labeled hIL-31; mean±S.D. (n=3)
Procedure: as §3
Each variant was tested for the activity of inhibiting the hIL-31/hNR10 binding by using FMAT. The test was carried out according to the method as described in Example 4.

[7] = biological target: T2, rhNR10 (recombinant human NR10); assay: SPR, Biacore T100; antibody captured on Protein A, rhNR10 as analyte; remark: listed apart in the source
Procedure: as §1, §2

[8] = biological target: T2, rhNR10 (recombinant human NR10); assay: as above; remark: listed apart in the source
Procedure: as §1, §2

[9] = biological target: T2, rhNR10 (recombinant human NR10); assay: as above; remark: listed apart in the source
Procedure: as §1, §2

Kd [1]: 1170 nM
fold binding activity relative to huPM1-IgG1 [1]: ~1.4 fold
B1: huPM1-M58 (humanized anti-IL-6 receptor antibody with constant region M58) (antibody)
heavy: QVQLQESGPGLVRPSQTLSLTCTVSGYSITSDHAWSWVRQPPGRGLEWIGYISYSGITTYNPSLKSRVTMLRDTSKNQFSLRLSSVTAADTAVYYCARSLARTTAMDYWGQGSLVTVSSASTKGPSVFPLAPSSKSTSGGTAALGCLVKDYFPEPVTVSWNSGALTSGVHTFPAVLQSSGLYSLSSVVTVPSSNFGTQTYTCNVDHKPSNTKVDKTVERKSCVECPPCPAPPVAGPSVFLFPPKPKDTLMISRTPEVTCVVVDVSQEDPEVQFNWYVDGVEVHNAKTKPREEQFNSTFRVVSVLTVVHQDWLNGKEYKCKVSNKGLPAPIEKTISKTKGQPREPQVYTLPPSQEEMTKNQVSLTCLVKGFYPSDIAVEWESNGQPENNYKTTPPMLDSDGSFFLYSKLTVDKSRWQEGNVFSCSVMHEALHNHYTQKSLSLSP
light: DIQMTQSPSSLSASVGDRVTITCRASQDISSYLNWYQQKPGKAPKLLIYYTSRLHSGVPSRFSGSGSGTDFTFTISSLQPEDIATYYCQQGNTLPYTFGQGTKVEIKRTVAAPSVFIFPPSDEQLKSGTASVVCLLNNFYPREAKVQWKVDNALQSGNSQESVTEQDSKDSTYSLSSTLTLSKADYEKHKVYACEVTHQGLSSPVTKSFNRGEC

Kd [2]: 3.2 nM
koff [2]: 0.00091 s⁻¹
kon [2]: 290000 M⁻¹ s⁻¹
IC50 (read off the curve) [3]: ~0.1 µg/mL
Kd [4]: 3.3 nM
koff [4]: 0.0012 s⁻¹
kon [4]: 370000 M⁻¹ s⁻¹
Kd [5]: 3.2 nM and 5.1 nM
koff [5]: 0.00062 s⁻¹ and 0.00074 s⁻¹
kon [5]: 190000 M⁻¹ s⁻¹ and 150000 M⁻¹ s⁻¹
IC50 (read off the curve) [6]: ~0.1 µg/mL
B2: humanized NS22 H0L0 with constant region SKSC (H0L0-SKSC) (antibody)
heavy: QVQLVQSGAEVKKPGASVKVSCKASGYTFTGYIMNWVRQAPGQGLEWMGLINPYNGGTSYNQKFKGRVTITADESTSTAYMELSSLRSEDTAVYYCARDGYDDGPYTMDYWGQGTLVTVSSASTKGPSVFPLAPSSKSTSESTAALGCLVKDYFPEPVTVSWNSGALTSGVHTFPAVLQSSGLYSLSSVVTVPSSNFGTQTYTCNVDHKPSNTKVDKTVERKSCVECPPCPAPPVAGPSVFLFPPKPKDTLMISRTPEVTCVVVDVSHEDPEVQFNWYVDGVEVHNAKTKPREEQFNSTFRVVSVLTVVHQDWLNGKEYKCKVSNKGLPAPIEKTISKTKGQPREPQVYTLPPSREEMTKNQVSLTCLVKGFYPSDIAVEWESNGQPENNYKTTPPMLDSDGSFFLYSKLTVDKSRWQQGNVFSCSVMHEALHNHYTQKSLSLSPGK
light: DIQMTQSPSSLSASVGDRVTITCRTSENIYSFLAWYQQKPGKAPKLLIYNAKTLAKGVPSRFSGSGSGTDFTLTISSLQPEDFATYYCQHHYESPLTFGGGTKVEIKRTVAAPSVFIFPPSDEQLKSGTASVVCLLNNFYPREAKVQWKVDNALQSGNSQESVTEQDSKDSTYSLSSTLTLSKADYEKHKVYACEVTHQGLSSPVTKSFNRGEC

Kd [7]: 4.8 nM
koff [7]: 0.00078 s⁻¹
kon [7]: 160000 M⁻¹ s⁻¹
Kd [4]: 4.8 nM
koff [4]: 0.00087 s⁻¹
kon [4]: 180000 M⁻¹ s⁻¹
Kd [1]: 910 nM
Kd [8]: 4.8 nM
koff [8]: 0.00069 s⁻¹
kon [8]: 140000 M⁻¹ s⁻¹
Kd [9]: 4.2 nM
koff [9]: 0.00088 s⁻¹
kon [9]: 210000 M⁻¹ s⁻¹
B3: H0L0-M58 (antibody)
heavy: QVQLVQSGAEVKKPGASVKVSCKASGYTFTGYIMNWVRQAPGQGLEWMGLINPYNGGTSYNQKFKGRVTITADESTSTAYMELSSLRSEDTAVYYCARDGYDDGPYTMDYWGQGTLVTVSSASTKGPSVFPLAPSSKSTSGGTAALGCLVKDYFPEPVTVSWNSGALTSGVHTFPAVLQSSGLYSLSSVVTVPSSNFGTQTYTCNVDHKPSNTKVDKTVERKSCVECPPCPAPPVAGPSVFLFPPKPKDTLMISRTPEVTCVVVDVSQEDPEVQFNWYVDGVEVHNAKTKPREEQFNSTFRVVSVLTVVHQDWLNGKEYKCKVSNKGLPAPIEKTISKTKGQPREPQVYTLPPSQEEMTKNQVSLTCLVKGFYPSDIAVEWESNGQPENNYKTTPPMLDSDGSFFLYSKLTVDKSRWQEGNVFSCSVMHEALHNHYTQKSLSLSP
light: B2 light
notes: also called H0L0 (H chain, H0-M58)

binding result [3]: binds
B4: humanized NS22 H1L0 (H1-SKSC / L0) (antibody, V domains shown)
VH: QVQLVQSGAEVKKPGASVKVSCKASGYTFTGYIMNWVRQAPGQGLEWMGLINPYNGGTSYNQKFKGRVTITADKSTSTAYMELSSLRSEDTAVYYCARDGYDDGPYTMDYWGQGTLVTVSS
VL: DIQMTQSPSSLSASVGDRVTITCRTSENIYSFLAWYQQKPGKAPKLLIYNAKTLAKGVPSRFSGSGSGTDFTLTISSLQPEDFATYYCQHHYESPLTFGGGTKVEIKR
